# Data published in publication PMC3828642, “1-Aminocyclopropane-1-carboxylic acid oxidase reaction mechanism and putative post-translational activities of the ACCO protein” (AoB Plants, 2013).
# B1: 1-aminocyclopropane-1-carboxylic acid oxidase (ACCO1) (Malus domestica) (protein)
# chain: MATFPVVDLSLVNGEERAATLEKINDACENWGFFELVNHGMSTELLDTVEKMTKDHYKKTMEQRFKEMVAAKGLDDVQSEIHDLDWESTFFLRHLPSSNISEIPDLEEEYRKTMKEFAVELEKLAEKLLDLLCENLGLEKGYLKKVFYGSKGPNFGTKVSNYPPCPKPDLIKGLRAHSDAGGIILLFQDDKVSGLQLLKDGEWVDVPPMHHSIVINLGDQIEVITNGKYKSVMHRVIAQSDGTRMSIASFYNPGNDSFISPAPAVLEKKTEDAPTYPKFVFDDYMKLYSGLKFQAKEPRFEAMKAKESTPVATA
# Substrate: NC1(C(=O)O)CC1
# Experiment: purified protein
# Conditions: Fe(II), ascorbate, bicarbonate active-site Fe(II); Arg175, Arg244 and Ser246 affect ACC binding
protein,measurement,value
B1,Km,51 µM
